The values below come from patent US20250250357A1 (NANJING ZAIMING PHARMACEUTICAL, published 2025).

B1: S009-F2.38.12 (antibody, human IgG1, kappa, V domains shown)
VH: QVQLQQPGTELVKPGASVKLSCKASGYTFTSYWMHWVKQRPGQGLEWIGNINPSNGGTNYNEKIKNKATLTVDKSSSTAYMQLSSLTSEDSAVYYCARWNYYGNYPFDYWGQGTTLTVSS
VL: DIVMTQSQKFMSTTVGDRVSITCKASQNVGTAVAWYQQKPGQSPKLLIYSASNRYTGVPDRFTGSGSGTDFTLTISNMQSEDLADYFCQQYSSYPLTFGAGTKLELKR
notes: Human-murine chimeric antibody, human IgG1/kappa constant regions
B2: S009-F7.21.16 (antibody, human IgG1, kappa, V domains shown)
VH: QVQLQQPGTELVKPGASVKLSCKASGYTFTTFWMHWVKQRPGQGLEWIGGVNPTNGGTNYNEKFRTKATLTVDKSSTTADMQLSSLTSEDSAVYYCAPHYISSRPGFAYWGQGTLVTVSG
VL: DIVMTQSQKFMSTSGGDRVSVTCKASQNVGTNVAWYQQKPGQSPKALIYSASYRYSGVPDRFTGSGSGTDFILTISNVQSEDLAEYFCQQYNSYPLTFGGGTKLEIKR
notes: human-murine chimeric antibody, human IgG1/kappa constant regions
B3: S009-F7.30.5 (antibody, human IgG1, kappa, V domains shown)
VH: QVQLQQPKTELVKPGASVKLSCKASGYIFTTYWMHWVKQRPGQGLEWIGNVNPSNGGTMYNEKFERRATLTVDKSSSTADMQLSSLTSEDSAVYYCVPHYIGSRPGFAYWGQGTLVTVSG
VL: B2 VL with G15V, Q38H, I48L, I72T, S76T
notes: as for B2
B4: S009-F7.48.1 (antibody, human IgG1, kappa, V domains shown)
VH: QVQLQQPGTELVKPGASVKLSCKASGYTFTSYWMHWVKQRPGQGLEWIGNINPSNGGTNNNENFKSKATLTVDTSSSTAYMQLSSLTSEDSAVYYCVRNGYHGYWYFDVWGTGTTVTVSS
VL: B2 VL with G15V, K39Q, G66V, I72T
notes: as for B2
B5: S009-F7.25.19 (antibody, human IgG1, kappa, V domains shown)
VH: QVQLQQPGTELVKPGASVKLSCKASGYTFTSYWMHWVKQRPGQGLEWIGNIIPSNGGTKYNEKFKSKATLTVDKSSSTAYMQLSSLTSEDSAVYYCSPHYYGGSPGFAYWGQGTLITVSA
VL: B2 VL with G15V, T22I, I72T
notes: as for B2
B6: S009-F7.33.24 (antibody, human IgG1, kappa, V domains shown)
VH: B2 VH with T31S, F32Y, G50N, T54S, T58S, R65K, T66N, T77S, S84N, S102G
VL: B2 VL with G15V, V33I, I72T, S76T, L104V
notes: as for B2
B7: S009-F7.53.2 (antibody, human IgG1, kappa, V domains shown)
VH: EVQLQQSGPELVKPGASVKIPCKTSGYTFTDYNMDWVKQSHGKSLEWIGDINPNTDGAIYNQKFQNKATLTVDKSSSTAYMELRSLTSEDTAVYYCTRRKLGRKFFDYWGQGTTLTVSS
VL: QIVLTQSPAIMSASPGEQVTMTCSASSSVGYMNWYQQKPGSSPRLLIYDTSNLASGVPVHFSGSGSGTSYSLTISRMEAAFAATYYCQQWYVYPYTFGGGTKLEIKR
notes: as for B2
B8: S009-F7.65.13 (antibody, human IgG1, kappa, V domains shown)
VH: EVQLQQSGPELVKPGTSVKILCKASGDTFTAYNMDWVKQRHGQSLEWIGDINPNTDSTIYNQKFEGKAILTVDKSSSTAYMELRSLTSEDTAVYYCARRKLGRGYFDYWGQGTTLTVSS
VL: QIVLTQSPAIMSASPGEKVTMTCSVNLSVRYIYWYQQKPGSSPRLLIHDTSNLASGVPVRFSGSGSGTSYSLTISRMEAEDAATYYCQQWSSFPYTFGGGTKLEIKR
notes: as for B2
B9: S009-F7.26.15 (antibody, human IgG1, kappa, V domains shown)
VH: DVQLQESGPGLVKPSQTVFLTCTVTGISITTGNYRWSWIRQFPGNKLEWIGYIYYTGFITYNPSLTSRTTITRDTPKNQFFLEMKSLTAEDTATYYCARDDYDYDVFAYWGQGTLVTVSA
VL: DIQMTQSPASLSASVGETVTITCRASGNIHNYLAWYHQKQGKSPQFLVYKAKTLADGVPSRFSGSGSGTQYSLKINRLQPEDFGSYYCQHFLSIPLTFGAGTKLELKR
notes: as for B2
B10: S009-F7.11.11 (antibody, human IgG1, kappa, V domains shown)
VH: EVQLQQSGPELVKPGASVKIPCKASGYTITDYNMDWVKQSRGKSLEWIGDVFPYNGDSIYNQKFEGRATLTVDKYSSTAYMELRGLTSEDTAVYFCARRKTGTGYFDVWGTGTTVTVSS
VL: QLVLTQSPAIMSASPGEKVTLTCSASSSVSSTYLSWYLQKPGSSPKLWIYSTSNLASGVPARFSGSGSGTSYSLTISSMEAEDAASYFCHQWSSYPYTFGGGTKLEIKR
notes: as for B2
B11: S009-F7.12.13 (antibody, human IgG1, kappa, V domains shown)
VH: EVQLQQSGPELVKPGASVKIPCKASGYTFTDYNMDWVKQSHGKGLEWIGDINPNTDDTIYNQKFNGKATLTVDKSSSTAYMELRSLTSEDTAVYYCSRRLIGTGYFDVWGTGTTVTVSS
VL: B10 VL with L2I, S30I, S35C, L38R, K46E, S94N, E106G, I107M
notes: as for B2
B12: S009-F7.44.20 (antibody, human IgG1, kappa, V domains shown)
VH: EVQLQQSGPELVKPGASVKIPCKASGYTFTDYNMDWVKQSHGKSLEWIGDINPSTGGTIYNQKFNGKATLTEDKSASTVYMEFRSLTSDDTAVYYCARRRIGTGYFDVWGTGTTVTVSS
VL: B10 VL with L2I, I10L, S30I, T32S, L38Q, W48L, S51R, Y95F
notes: as for B2
B13: S009-F7.61.21 (antibody, human IgG1, kappa, V domains shown)
VH: DVQLQQSGPELVEPGASVRIPCKAAGHTFTDYNVDWVKQSHGQSLEWIGDVNPNTDGAIYNQKFEGKATLTVDTSSSTAYMELRSLTSEDTAVYFCARRRLGQGGFDSWGQGTTLTVSS
VL: B10 VL with L2V, S24G, V29L, S30I, T32K, S35Y, L38Q, L105V
notes: as for B2
B14: S009-F7.67.12 (antibody, human IgG1, kappa, V domains shown)
VH: QVQLQQPGTELVKPGASVRLSCRASGYSFSSYWMHWVKQRPGQGLEWLGNINPTTGDINYNEKFRNRATLAVDKSSTTAYLQLTSLTSEDSAVYFCVRHDGFLWGQGTTLTVSS
VL: DIQMTQSPASLSASVGETVTITCRASENIYSYLAWYQQKQGKSPQLLVYYAKTLAEGVSSRFSGSGSGTQFSLKINSLQPEDFGTYYCQHQFGTPRTFGGGTKLEIRR
notes: as for B2
B15: S009-F7.66.12 (antibody, human IgG1, kappa, V domains shown)
VH: QIPLQQSGPELVKPGASVRISCKASDYAFSSSWMNWVKQRPEKGLEWIGRIFVESGNTHYNDKFNGKATLTADKSSRTAYIQLSSLTSEDSAVYFCTRENIFYHGHSSWFAYWGQGTLVTVSA
VL: DIVLTQSPASLVVSLGQRATISCRAGESVDDFGISYVHWYQQKPGQPPKLLIYRAANLESGIPARFSGSGSRTDFTLTINPVETDDVAIYYCQQNNKDPFTFGSGTKLEIKR
notes: as for B2
B16: S009-F7.6.17 (antibody, human IgG1, kappa, V domains shown)
VH: QVQLQQSGAELARPGASVKMSCKASGYTFTTYTMHWVKQRPGQGLEWIGYISPTGDFTKYNQKFKDKATLTTDKSSNTAFMQLSSLTSEDSAVYYCARWNGTVWFAYWGQGTLVTVSA
VL: DIVMTQSQKFMSTSVGDRVTVTCKASQALGTNVAWYQQKPGQSPKVLIYSASYRYSGVPYRFAGGGSGTDFTLTITNVQSEDLAEYFCQQYNNYPLTFGAGTKLELKR
notes: as for B2
B17: S009-F7.23.19 (antibody, human IgG1, kappa, V domains shown)
VH: EVKLVESGGGLVQPGGSLSLSCAASGFTFTDYYMSWVRQPPGKALEWLGFIRSKANAYTTEYSASVKGRFTISRDNSQSILYLQMNDLRAEDSATYYCARYYYYGSGYVWYFDVWGTGTTVTVSS
VL: B2 VL with G15V, N28S, S43F, I72T, S76I, G100A, I106L
notes: as for B2
B18: S009-F7.41.18 (antibody, human IgG1, kappa, V domains shown)
VH: QVQLQQPGTELVKPGASVKLSCKASDYTFTSYWMHWVKQRPGQGLEWIGSINPSNGDTYYNEKFKNKATLTVDKSSSTAYMQLSSLTSDDSAVYYCARGWYFDVWGTGTTVTVSS
VL: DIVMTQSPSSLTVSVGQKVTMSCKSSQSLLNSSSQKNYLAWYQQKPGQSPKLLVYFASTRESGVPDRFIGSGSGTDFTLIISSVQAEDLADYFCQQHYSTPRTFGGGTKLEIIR
notes: as for B2
B19: S009-F7.69.8 (antibody, human IgG1, kappa, V domains shown)
VH: EVHLQQSGPELVKPGASVRIPCKASGYTFTDYNMDWVKQSHGKSLEWIGDINPDNGGTIYTQKFKGKATLTVDKSSSTAYMELRSLTSEDTAVYYCARRLHYYGSSGLDYWGQGTTLTVSS
VL: DIQMTQSPASLSAYVGETVTITCRASGNIHNYLAWYQQKQGKSPQLLVYNAKTLADGVPSRFSGSGSGTQYSLKINSLQPEDFGSYYCQHFWSTVWTFGGGTKLEIKR
notes: as for B2

Numbering of substitutions follows the chain as printed.

One assay concerns the target T1, human MSLN-FL-his protein (human, UniProt Q13421 296-580).
T1 construct: also called human MSLN full-length protein; hMSLN-FL-his; not shown: His tag
As to the kind of experiment: ELISA, coated MSLN full-length.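 Also: binding of chimeric antibodies to plate-bound antigen, read by TMB colour after acid stop, antibody incubated 2 h at 37 °C, negative control antibody run alongside.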 A general note: In an ELISA, binding on a coated surface is turned into a signal by an enzyme label.
T1 sequence (Q13421 other isoform, or with tags, fused parts or gaps): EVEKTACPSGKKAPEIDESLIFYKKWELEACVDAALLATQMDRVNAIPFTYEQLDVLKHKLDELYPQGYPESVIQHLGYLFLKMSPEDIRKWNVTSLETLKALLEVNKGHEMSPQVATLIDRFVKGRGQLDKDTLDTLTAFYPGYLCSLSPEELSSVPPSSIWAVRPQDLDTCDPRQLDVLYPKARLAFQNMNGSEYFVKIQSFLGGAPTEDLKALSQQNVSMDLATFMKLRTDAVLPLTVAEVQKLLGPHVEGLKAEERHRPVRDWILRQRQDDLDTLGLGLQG
As for B1, the “OD450 at 0.0001 nM” value was found to be 0.06 OD450, the “OD450 at 0.001 nM” value was determined as 0.09 OD450, the “OD450 at 0.01 nM” value is 0.46 OD450 and the “OD450 at 0.1 nM” value is 1.85 OD450. Also, the “OD450 at 1 nM” value stood at 2.56 OD450, the “OD450 at 10 nM” value came to 2.43 OD450, the “OD450 at 100 nM” value came to 2.57 OD450 and the “OD450 at none (no antibody)” value is 0.06 OD450.

The target of the next assay is T2, human MSLN-FL-his protein (human, UniProt Q13421 296-580).
T2 construct: made in HEK293E cells, purified on nickel column; also called hMSLN-FL-his; human MSLN full-length protein; not shown: His tag
As to the kind of experiment: SPR (Biacore), antibody captured on Protein A chip.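 Also: flow cell at 25 °C, antigen injected for 240 s at five concentrations from 200 nM downward, dissociation followed up to 600 s, double-referenced, fitted with Langmuir 1:1 model.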
T2 sequence (Q13421 other isoform, or with tags, fused parts or gaps): as above
On to B2, for which the Kd (in general, a measure of binding affinity in units of concentration) is 1.69 nM; the koff (commonly a measure of how fast the partners let go of each other) stood at 0.000773 s⁻¹; the kon (commonly the rate constant with which the complex forms) stood at 458000 M⁻¹ s⁻¹.

With B3, the Kd was determined as 3.83 nM, the koff is 0.000705 s⁻¹ and the kon came to 184000 M⁻¹ s⁻¹.

B4: the Kd worked out at 17.8 nM, the koff came to 0.000413 s⁻¹ and the kon worked out at 23100 M⁻¹ s⁻¹.

Regarding B5, the Kd was 2.71 nM, the koff is 0.00113 s⁻¹ and the kon was 417000 M⁻¹ s⁻¹.

In turn, B6 showed a Kd of 10.2 nM, a koff of 0.00506 s⁻¹ and a kon of 498000 M⁻¹ s⁻¹.

As to B7, the affinity, expressed as Kd, was 3.27 nM; the koff was found to be 0.00065 s⁻¹; the kon is 199000 M⁻¹ s⁻¹.

Consider B8, for which the Kd amounted to 1.44 nM, the dissociation rate constant (koff) worked out at 0.000538 s⁻¹ and the kon came out at 374000 M⁻¹ s⁻¹.

With B9, the Kd amounted to 0.2 nM, the dissociation rate constant (koff) was 0.000975 s⁻¹ and the kon came out at 4.88e+06 M⁻¹ s⁻¹.

Molecule B10 showed a Kd of 0.181 nM, a koff of 0.00024 s⁻¹ and a kon of 1.33e+06 M⁻¹ s⁻¹.

B11 came in with an equilibrium dissociation constant (Kd) of 40.5 nM, a koff of 0.00892 s⁻¹ and a kon of 220000 M⁻¹ s⁻¹.

B12 registered a Kd of 3.01 nM, a koff of 0.00106 s⁻¹ and a kon of 351000 M⁻¹ s⁻¹.

Molecule B13 gave a Kd of 5.03 nM, a koff of 0.00154 s⁻¹ and a kon of 306000 M⁻¹ s⁻¹.

Take B14: the Kd is 0.602 nM, the koff turned out to be 0.00065 s⁻¹ and the kon stood at 1.08e+06 M⁻¹ s⁻¹.

For B15, the Kd amounted to 13.1 nM, the koff was 0.00236 s⁻¹ and the kon was 180000 M⁻¹ s⁻¹.

For B16, binding was characterised by a dissociation constant (Kd) of 1.18 nM, the koff amounted to 0.000389 s⁻¹ and the kon stood at 329000 M⁻¹ s⁻¹.

B17 displayed a Kd of 13.6 nM, a koff of 0.00695 s⁻¹ and a kon of 511000 M⁻¹ s⁻¹.

The molecule B18 displayed a Kd of 0.418 nM, a koff of 8.35e-05 s⁻¹ and a kon of 200000 M⁻¹ s⁻¹.

Consider B19, for which the Kd was found to be 6.51 nM, the koff was found to be 0.00447 s⁻¹ and the kon was 687000 M⁻¹ s⁻¹.
